# Results as given in article doi:10.1101/2025.03.06.641855.
# What was measured:
# [1] = target: OppA-ev2 (evolved OppA variant with seven mutations) (E. coli (K12)) (UniProt P23843); assay: MST
# [2] = target: wt-OppA, periplasmic binding protein of the oligopeptide permease (Opp) transporter (E. coli (K12)) (UniProt P23843); assay: MST
Substance,Kd [1],Kd [2]
"G-SisoK, isopeptide-linked tripeptide",37 µM,50 µM
"SisoK, isopeptide-linked dipeptide",300 µM,300 µM
linear GSK tripeptide,275 µM,71 µM
